Measurements taken from the supplement of paper PMC9732359.
± gives the uncertainty stated by the source.

Assay: protein stability index of a GFP-peptide fusion (yeast GPS) (PSI 1-4); higher = more stable; sorted into four equal gates, so the index is relative within each strain
Summary of the method: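 Mid-log yeast cultures in leucine-free medium, carrying a pooled plasmid library, were sorted into four equal gates by their GFP/Cherry fluorescence ratio. Each plasmid expressed Cherry along with GFP fused upstream of a tiled 17-residue yeast protein peptide. Plasmids recovered from each gate were PCR-amplified and Illumina-sequenced, with reads assigned to strains by barcodes. The protein stability index was obtained by summing each gate's read frequency weighted by its gate number.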

| Sequence | protein stability index (doa10∆) | protein stability index (san1∆) | protein stability index (ubr1∆) | protein stability index (pdr5∆) |
| --- | --- | --- | --- | --- |
| ELVKSYSWLLFEASCME [YJR042W/NUP85] | 2.96 ± 0.28 | 3.44 ± 0.16 | 2.41 ± 0.19 |  |
| EMERIVKNLTKYLSDIM [SRP68] | 2.76 ± 0.25 |  | 2.06 ± 0.074 | 2.53 ± 0.099 |
| ENDVKPISIEAPQFYRY [SWI3] | 2.55 ± 0.038 | 2.2 ± 0.055 | 1.95 ± 0.035 | 2.14 ± 0.039 |
| ENGERKLYDAKRYTSEG [YMR129W/POM152] | 3.35 ± 0.12 | 2.96 ± 0.1 | 3.29 ± 0.085 | 2.92 ± 0.1 |
| ENIIIVGGTTSISGFKE [ARP9] | 2.13 ± 0.092 | 2.64 ± 0.07 | 2.88 ± 0.054 | 2.2 ± 0.06 |
| ENKVMLPRCSKEEFRLM [RRI2] | 1.8 ± 0.06 | 2.06 ± 0.088 | 1.7 ± 0.048 | 2.1 ± 0.076 |
| ENLVQGNGNVSESDIIN [YCG1] | 3.78 ± 0.29 |  |  |  |
| ENTPEPDLPALEASYSK [SMC4] | 2.36 ± 0.12 | 3.18 ± 0.068 | 2.99 ± 0.12 | 2.61 ± 0.091 |
| ENVLAIGIAGAHRVRDL [SKI6] | 1.97 ± 0.065 | 2.1 ± 0.084 | 1.74 ± 0.052 | 2.21 ± 0.059 |
| ENVQIGEDFMEVDYEDK [SRB4] | 3.48 ± 0.13 |  | 2.2 ± 0.084 | 1.97 ± 0.17 |
| EPFTILGAVAGLIPYPH [RET1] | 2.17 ± 0.063 | 2.13 ± 0.078 | 1.83 ± 0.043 | 2.13 ± 0.051 |
| EPKLFRMRIFASNEVIA [RPL20A] | 2.19 ± 0.087 | 1.82 ± 0.06 | 2.28 ± 0.036 | 1.97 ± 0.054 |
| EQERKELEKYNELERNR [SMC3] | 3.14 ± 0.14 | 3.2 ± 0.11 | 3.24 ± 0.091 | 3.05 ± 0.18 |
| EQFLETDSDFAKYHAKL [SRP68] | 2.83 ± 0.07 | 2.79 ± 0.05 | 2.77 ± 0.089 | 2.94 ± 0.067 |
| EQFPFYLHDNASKVLLK [IRR1] | 2.45 ± 0.081 | 1.91 ± 0.075 | 2.41 ± 0.052 | 2.47 ± 0.065 |
| EQQVAEEATTEEAGEEE [RPS0A] | 2.89 ± 0.14 | 2.6 ± 0.19 |  | 2.82 ± 0.24 |
| EQSKEVGDVVGGALDNP [BRN1] | 3.29 ± 0.091 | 3.44 ± 0.057 | 3.38 ± 0.058 | 3.54 ± 0.078 |
| EQVRKMYQEWEDETVKV [NSL1] | 3.7 ± 0.09 | 3.406 ± 0.032 | 3.58 ± 0.077 | 3.52 ± 0.083 |
| EQYIQELDKREDMIDQV [SMC3] | 3.23 ± 0.065 | 3.01 ± 0.072 | 3.29 ± 0.15 | 3.03 ± 0.084 |
| EQYTKKINSWDQVLVKG [YJL041W/NSP1] | 1.72 ± 0.095 |  | 1.48 ± 0.087 | 2.29 ± 0.1 |
| ERAARVVKGRVEKTLLS [RPO31] | 3.37 ± 0.19 |  | 3.5 ± 0.1 | 3.27 ± 0.18 |
| EREIMNDHSKSANPKKT [SWI3] | 3.29 ± 0.077 | 3.3 ± 0.16 | 3.31 ± 0.065 | 3.3 ± 0.084 |
| ERELISNIEQTESLRVE [YIL149C/MLP2] | 3.34 ± 0.063 | 3.18 ± 0.041 | 3.37 ± 0.07 | 3.47 ± 0.078 |
| EREQCRAGGAAASLIMP [PRE7] | 3.02 ± 0.24 | 3.43 ± 0.18 | 2.89 ± 0.1 | 2.92 ± 0.19 |
| ERIINVGVIGPLHSGKT [SNU114] | 2.87 ± 0.12 |  | 2.94 ± 0.09 | 2.57 ± 0.11 |

| Sequence | protein stability index (doa10∆) | protein stability index (san1∆) | protein stability index (ubr1∆) | protein stability index (pdr5∆) |
| --- | --- | --- | --- | --- |
| ERKEREDFQKRQQKLLE [SWI1] | 3.27 ± 0.073 | 3.34 ± 0.049 | 3.2 ± 0.048 | 3.32 ± 0.06 |
| ERKSKTYVITKNGKIYL [RET1] | 2.76 ± 0.051 | 2.5 ± 0.059 | 2.47 ± 0.035 | 2.54 ± 0.057 |
| ERQIFLEACIVRIMKAK [CDC53] | 1.64 ± 0.051 | 1.48 ± 0.076 | 1.61 ± 0.037 | 1.69 ± 0.048 |
| ERRLQTQVYKLGLAKSV [RPS9A] | 1.29 ± 0.067 | 1.2 ± 0.18 | 1.23 ± 0.064 | 1.23 ± 0.056 |
| ERSAGNIVQVFKKAAPS [RPB2] | 2.6 ± 0.12 | 2.52 ± 0.11 | 2.91 ± 0.27 | 2.53 ± 0.14 |
| ERVWNICLYSSFQKNSL [AAR2] | 1.8 ± 0.059 | 2.18 ± 0.1 | 2.02 ± 0.034 | 2.01 ± 0.046 |
| ESCEDILDLKEFDRRIL [RTT102] | 2.78 ± 0.16 | 3.23 ± 0.072 | 3.07 ± 0.092 | 3.37 ± 0.16 |
| ESDAPPKSTAPIFSFGK [YOR098C/NUP1] | 2.72 ± 0.044 | 2.71 ± 0.042 | 2.76 ± 0.038 | 2.58 ± 0.044 |
| ESDYEPNNETSVLSSKP [SIR3] | 2.99 ± 0.089 | 3.02 ± 0.11 | 3.01 ± 0.07 | 3.08 ± 0.11 |
| ESFPDDIPLAKALDNAC [CDC53] | 2.58 ± 0.07 | 2.67 ± 0.055 | 2.8 ± 0.045 | 2.97 ± 0.058 |
| ESIASSNTYKEERSNNL [MCD1] | 3.03 ± 0.13 | 3.25 ± 0.06 | 3.39 ± 0.075 | 3.37 ± 0.14 |
| ESKDLLRASFNKLSSIL [SRB4] | 1.08 ± 0.097 | 1.22 ± 0.16 | 1.1 ± 0.094 | 1.33 ± 0.074 |
| ESLKKELQIFKTANSSS [YIL149C/MLP2] | 2.78 ± 0.065 | 2.9 ± 0.059 | 2.61 ± 0.042 | 2.93 ± 0.049 |
| ESLPQYVDFVPMYKELW [POP4] | 2.12 ± 0.061 | 2.5 ± 0.074 | 2.64 ± 0.048 | 2.45 ± 0.056 |
| ESNNPSHDASRSLASFE [SIR4] | 2.97 ± 0.1 | 3.02 ± 0.072 | 3.02 ± 0.17 | 3.14 ± 0.12 |
| ESSDFGAIILTKMDGHA [SRP54] | 2.42 ± 0.1 | 2.91 ± 0.11 | 2.8 ± 0.077 | 2.74 ± 0.094 |
| ESSELNKDSIEECGRTI [CSN12] | 3.46 ± 0.18 | 3.42 ± 0.089 | 3.28 ± 0.15 | 2.92 ± 0.16 |
| ESYDAALSLHREILCYS [FAS2] | 2.18 ± 0.022 | 2.28 ± 0.028 | 2.28 ± 0.017 | 2.151 ± 0.019 |
| ETAKKITFHPKIRARSI [SMC2] | 2.91 ± 0.058 | 2.92 ± 0.045 | 2.85 ± 0.05 | 2.95 ± 0.06 |
| ETAQAINGWELTKAQKY [RPL17A] | 3.27 ± 0.055 | 3.18 ± 0.034 | 3.28 ± 0.043 | 3.35 ± 0.049 |
| ETDEYISYTSHIEGVVI [RPN1] | 3.13 ± 0.1 |  | 3.08 ± 0.08 | 3.44 ± 0.17 |
| ETDHKTNENGETDDNIE [SRB4] | 3.01 ± 0.22 | 3.08 ± 0.083 | 3.21 ± 0.089 | 3.57 ± 0.15 |
| ETEIKDLTQLLEKERSI [SMC4] | 3.34 ± 0.079 | 3.24 ± 0.051 | 3.25 ± 0.039 | 3.15 ± 0.048 |
| ETEQEYSPSNEISISFD [YDL116W/NUP84] | 2.65 ± 0.058 | 2.52 ± 0.059 | 2.98 ± 0.048 | 2.89 ± 0.067 |
| ETIENVKLQMIKFGGLI [ECM29] | 3.53 ± 0.1 | 3.18 ± 0.11 | 3.26 ± 0.07 | 3.37 ± 0.17 |
